Experimental data taken from patent publication US20220289837A1 (VIB VZW, published 2022).

How the values were obtained:
[1] = target: T1, Purified human wt-CFTR (His10-SUMO*-CFTRFLAG-EGFP), PKA phosphorylated (human, UniProt P13569 1-1480, PKA phosphorylated (sites not given)); test: ELISA, Twin-Strep nanobody immobilised, concentration of purified wt-CFTR varied
T1 construct: Expressed in HEK293 cell line D165, purified on NiNTA in DMNG detergent; used for the full-length CFTR ELISA and the ATPase assays; also called FL-CFTR; full-length CFTR; not shown: N-terminal His10-SUMO* tag; FLAG tag and enhanced green fluorescent protein (EGFP)
Text: Quantification of at least 3 independent experiments (±SEM). (g) Immunoblot of CFTR from solubilized BHK-21 cells pulled-down with His-tagged nanobodies, including a non-CFTR nanobody as a control. Eluted nanobodies-CFTR complexes were separated by SDS-PAGE and presence of CFTR was detected with mAb 596 antibody after immunoblotting. Arrows indicate the mature (band C) and immature (band B) forms of CFTR. Representative of at least 3 independent experiments. (FIG. 4H) Flow cytometry analysis of nanobodies T2a, T8 and G3a on BHK-21 cells expressing 2PT-F508del showing increased labelling for T2a and G3a, but not T8. (FIG. 4I) Quantification of data illustrated in […]. Average of 3 independent experiments (±SEM).
Strep-Tactin XT coated microplate (iba Life Science) was coated overnight at 4° C. with Twin-Strep-tagged nanobodies (5 μg/ml). […] CFTR binding was detected with monoclonal antibodies L12B4, MM13, 154, 660, 570, 596 specific to CFTR obtained from the CFTR Antibody Distribution Program (http://cftrantibodies.web.unc.edu/available-antibodies)46 and then anti-mouse-HRP antibody (Millipore, catalogue number: AP308P, 0.5 μg/ml) for 1 h 30 min at 4° C. […] Nanobody binding was detected with Myc-tag specific antibody (Sigma, catalogue number: C3956, 0.5 μg/ml) and then anti-rabbit-HRP antibody (Cell Signaling, catalogue number: 7074S, 1:1000 dilution) for 1 h 30 min at 4° C. […]

[2] = target: 2PT-NBD1-RE (2PT-NBD1 with residues 387-678, containing the regulatory extension) (human, UniProt P13569 387-678, biotinylated for the ELISA (sites not given)); test: ELISA, biotinylated 2PT-NBD1-RE on avidin-coated plate, T2a titrated
Text: (§1) The location of these nanobodies completely overlaps (FIG. 11a) with that of the C-terminal regulatory extension (RE) observed in previously published structures of NBD1^{[25,26].} The RE segment, comprising residues 654-673 was removed from the 2PT-NBD1 construct used for immunization and characterization. While the functional role of the RE is still unclear, it has been described to be a very mobile domain^{[27]}. […] This is consistent with RE being a dynamic region of CFTR.
(§2) For dose-response assays, Nunc MaxiSorp 96-well plates (ThermoScientific), were coated with 5 μg/ml NeutrAvidin Biotin-Binding protein (ThermoScientific) overnight at 4° C. and blocked 2 h at room temperature (RT) with 2% milk in phosphate-buffered saline (PBS). Each new reagent addition was preceded by three washes with 200 μl of NBD1 buffer (20 mM HEPES pH 7.5, 150 mM NaCl, and 10% (w/v) glycerol, 10% (w/v) ethylene glycol, 2 mM ATP, 3 mM MgCl₂). Then, biotinylated purified NBD1 proteins at 5 μg/ml were immobilized 30 min at RT followed by 1 h RT incubation with 100 μl various concentrations (0-20 μg/ml) of purified nanobodies. […] 50 μl of 1-Step UltraTMB-ELISA (ThermoScientific) was used as a substrate for the peroxidase and intensity of the reaction was proportional to absorbance measured at 450 nm with SynergyMx (BioTek) after addition of 50 μl H₂SO₄ at 1M.

F508del-2PT-NBD1 = target: T2, F508del-2PT-NBD1 (human, UniProt P13569 388-646, biotinylated for the ELISA (sites not given)); test: ELISA, biotinylated F508del-2PT-NBD1 on avidin-coated plate, nanobody titrated, anti-His detection
T2 construct: also called F508del-2PT-NBD1 mutant
Procedure: (a) Nanobody binding to 2PT-NBD1 measured by ELISA. Biotinylated 2PT-NBD1 was immobilized on avidin-coated plates and incubated with increasing concentration of each nanobody. Binding of nanobody was followed by immunodetection of the His-tag (see Methods). Representative curve of 3 independent experiments is shown. Error bars represent the standard deviation (SD) of duplicates. Data were normalized to maximum signal for each nanobody separately. (b) Nanobody binding to F508del-2PT-NBD1 measured by ELISA as described in panel a. (c) Nanobody T4 binding to 2PT-NBD1 and F508del-2PT-NBD1. Data were normalized to maximum signal of T4 binding to 2PT-NBD1. (d) Nanobody T8 binding to 2PT-NBD1 and F508del-2PT-NBD1. Data were normalized to maximum signal of T8 binding to 2PT-NBD1.
For dose-response assays, Nunc MaxiSorp 96-well plates (ThermoScientific), were coated with 5 μg/ml NeutrAvidin Biotin-Binding protein (ThermoScientific) overnight at 4° C. and blocked 2 h at room temperature (RT) with 2% milk in phosphate-buffered saline (PBS). Each new reagent addition was preceded by three washes with 200 μl of NBD1 buffer (20 mM HEPES pH 7.5, 150 mM NaCl, and 10% (w/v) glycerol, 10% (w/v) ethylene glycol, 2 mM ATP, 3 mM MgCl₂). Then, biotinylated purified NBD1 proteins at 5 μg/ml were immobilized 30 min at RT followed by 1 h RT incubation with 100 μl various concentrations (0-20 μg/ml) of purified nanobodies. Signal detection was followed using His-tag specific antibody (Invitrogen, catalogue number: MA1-135, 1:3000 dilution) to detect the nanobodies and secondary antibody anti-mouse coupled to horse radish peroxidase (HRP) (Millipore, catalogue number: AP308P, 1:5000 dilution). 50 μl of 1-Step UltraTMB-ELISA (ThermoScientific) was used as a substrate for the peroxidase and intensity of the reaction was proportional to absorbance measured at 450 nm with SynergyMx (BioTek) after addition of 50 μl H₂SO₄ at 1M.

[3] = target: T3, Stabilized human CFTR (stab-CFTR: 2PT/ΔRI/R1048A_1172X) (human, UniProt P13569 1-1171, limits assumed); test: cell-based or functional assay
[4] = target: T4, 2PT-NBD1 (human CFTR nucleotide-binding domain 1, residues 387-646, with S492P, A534P, I539T) (human, UniProt P13569 388-646, biotinylated for the ELISA (sites not given)); test: ELISA, biotinylated 2PT-NBD1 on avidin-coated plate, T2a titrated
T4 construct: N-terminal His6-SUMO tag removed with Ulp1; In the T2a-T4 and T27 crystals the domain was cut by papain or subtilisin
Text: as §1, §2

[5] = target: T3, Stabilized human CFTR (stab-CFTR: …); test: cell-based or functional assay; remark: listed apart in the source

T1 sequence (P13569 whole entry): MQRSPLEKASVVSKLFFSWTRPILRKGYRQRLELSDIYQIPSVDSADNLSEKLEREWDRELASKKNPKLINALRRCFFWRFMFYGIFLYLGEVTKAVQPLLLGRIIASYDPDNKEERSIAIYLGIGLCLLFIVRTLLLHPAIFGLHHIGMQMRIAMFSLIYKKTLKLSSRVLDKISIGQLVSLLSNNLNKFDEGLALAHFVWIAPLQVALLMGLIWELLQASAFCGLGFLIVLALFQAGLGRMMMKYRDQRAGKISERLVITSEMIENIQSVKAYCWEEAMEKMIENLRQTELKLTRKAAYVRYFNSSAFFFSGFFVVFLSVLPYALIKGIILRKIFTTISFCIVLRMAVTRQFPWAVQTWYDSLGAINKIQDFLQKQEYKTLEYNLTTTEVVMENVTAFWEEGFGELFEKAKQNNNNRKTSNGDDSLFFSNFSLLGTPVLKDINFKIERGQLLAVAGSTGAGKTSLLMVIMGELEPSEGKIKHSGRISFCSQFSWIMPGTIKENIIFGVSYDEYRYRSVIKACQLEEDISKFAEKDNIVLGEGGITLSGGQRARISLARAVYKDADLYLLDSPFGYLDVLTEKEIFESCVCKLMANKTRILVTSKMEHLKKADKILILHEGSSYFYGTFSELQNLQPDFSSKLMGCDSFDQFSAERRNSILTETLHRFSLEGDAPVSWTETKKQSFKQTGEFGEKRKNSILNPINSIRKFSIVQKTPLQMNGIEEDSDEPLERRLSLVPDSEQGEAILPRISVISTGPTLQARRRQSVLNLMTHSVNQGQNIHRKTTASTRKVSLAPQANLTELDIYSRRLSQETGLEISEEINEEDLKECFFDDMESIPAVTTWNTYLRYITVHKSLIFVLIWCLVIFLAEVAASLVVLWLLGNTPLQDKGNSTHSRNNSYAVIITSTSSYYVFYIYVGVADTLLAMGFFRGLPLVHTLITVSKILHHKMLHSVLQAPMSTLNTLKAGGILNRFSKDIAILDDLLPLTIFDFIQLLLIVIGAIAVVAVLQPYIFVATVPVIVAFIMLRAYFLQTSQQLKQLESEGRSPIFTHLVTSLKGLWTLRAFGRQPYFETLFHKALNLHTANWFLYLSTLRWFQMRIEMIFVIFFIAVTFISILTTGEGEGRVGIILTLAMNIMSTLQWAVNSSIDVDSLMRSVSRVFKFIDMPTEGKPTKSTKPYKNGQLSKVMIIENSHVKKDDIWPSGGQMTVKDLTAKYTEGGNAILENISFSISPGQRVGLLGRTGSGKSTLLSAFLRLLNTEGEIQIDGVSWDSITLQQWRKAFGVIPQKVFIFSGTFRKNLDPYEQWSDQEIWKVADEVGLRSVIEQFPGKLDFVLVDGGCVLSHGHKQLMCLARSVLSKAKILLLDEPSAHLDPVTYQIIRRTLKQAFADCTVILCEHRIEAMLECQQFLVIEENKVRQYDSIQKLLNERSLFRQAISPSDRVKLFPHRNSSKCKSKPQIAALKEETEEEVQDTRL
T3 sequence (P13569 other isoform, or with tags, fused parts or gaps R1048A R1048A limits assumed): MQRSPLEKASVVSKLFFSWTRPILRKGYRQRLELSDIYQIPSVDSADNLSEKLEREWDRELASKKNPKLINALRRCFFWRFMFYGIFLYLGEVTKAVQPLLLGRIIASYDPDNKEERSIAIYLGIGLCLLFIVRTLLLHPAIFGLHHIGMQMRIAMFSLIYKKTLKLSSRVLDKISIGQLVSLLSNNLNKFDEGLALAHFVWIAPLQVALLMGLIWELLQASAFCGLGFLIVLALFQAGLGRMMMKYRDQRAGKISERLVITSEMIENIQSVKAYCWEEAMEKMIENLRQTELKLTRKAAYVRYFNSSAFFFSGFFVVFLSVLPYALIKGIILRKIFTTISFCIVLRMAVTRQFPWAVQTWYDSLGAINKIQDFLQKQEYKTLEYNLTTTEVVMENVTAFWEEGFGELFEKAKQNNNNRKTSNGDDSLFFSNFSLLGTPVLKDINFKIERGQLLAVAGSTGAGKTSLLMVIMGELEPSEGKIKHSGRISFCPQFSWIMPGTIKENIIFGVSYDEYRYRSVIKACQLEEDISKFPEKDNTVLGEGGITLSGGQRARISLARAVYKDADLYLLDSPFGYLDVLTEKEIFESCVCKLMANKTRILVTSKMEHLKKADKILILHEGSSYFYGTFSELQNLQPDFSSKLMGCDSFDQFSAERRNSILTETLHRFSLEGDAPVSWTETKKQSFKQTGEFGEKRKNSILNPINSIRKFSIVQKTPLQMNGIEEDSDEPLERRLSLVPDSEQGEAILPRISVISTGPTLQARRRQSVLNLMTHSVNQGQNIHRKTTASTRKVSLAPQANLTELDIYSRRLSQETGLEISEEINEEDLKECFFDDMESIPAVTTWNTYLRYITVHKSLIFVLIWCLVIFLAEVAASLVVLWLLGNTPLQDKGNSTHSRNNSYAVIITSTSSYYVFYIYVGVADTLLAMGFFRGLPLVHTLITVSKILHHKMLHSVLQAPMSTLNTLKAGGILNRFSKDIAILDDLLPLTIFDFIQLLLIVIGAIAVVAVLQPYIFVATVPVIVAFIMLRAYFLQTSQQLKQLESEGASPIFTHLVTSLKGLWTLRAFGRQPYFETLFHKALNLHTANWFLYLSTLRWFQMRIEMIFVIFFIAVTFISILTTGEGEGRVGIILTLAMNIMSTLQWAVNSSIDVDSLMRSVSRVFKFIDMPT
2PT-NBD1-RE (2PT-NBD1 with residues 387-678, containing the regulatory extension), sequence (P13569 other isoform, or with tags, fused parts or gaps limits assumed): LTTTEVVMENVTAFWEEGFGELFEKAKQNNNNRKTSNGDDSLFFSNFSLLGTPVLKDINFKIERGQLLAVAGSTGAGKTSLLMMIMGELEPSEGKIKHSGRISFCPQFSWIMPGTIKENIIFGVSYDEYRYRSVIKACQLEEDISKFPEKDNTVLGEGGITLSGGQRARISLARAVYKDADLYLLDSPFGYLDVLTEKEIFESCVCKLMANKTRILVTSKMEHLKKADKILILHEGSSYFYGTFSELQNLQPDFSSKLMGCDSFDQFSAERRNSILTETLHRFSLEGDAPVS
T4 sequence (P13569 388-646 V470M/S492P/A534P/I539T limits assumed): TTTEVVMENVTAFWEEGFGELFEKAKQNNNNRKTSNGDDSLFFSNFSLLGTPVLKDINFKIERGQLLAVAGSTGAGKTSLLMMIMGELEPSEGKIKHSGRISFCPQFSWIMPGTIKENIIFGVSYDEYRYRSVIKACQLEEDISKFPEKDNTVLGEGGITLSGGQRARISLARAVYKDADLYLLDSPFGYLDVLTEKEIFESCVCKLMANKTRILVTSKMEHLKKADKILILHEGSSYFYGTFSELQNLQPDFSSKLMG
T2 sequence (P13569 other isoform, or with tags, fused parts or gaps limits assumed, stated change not applied): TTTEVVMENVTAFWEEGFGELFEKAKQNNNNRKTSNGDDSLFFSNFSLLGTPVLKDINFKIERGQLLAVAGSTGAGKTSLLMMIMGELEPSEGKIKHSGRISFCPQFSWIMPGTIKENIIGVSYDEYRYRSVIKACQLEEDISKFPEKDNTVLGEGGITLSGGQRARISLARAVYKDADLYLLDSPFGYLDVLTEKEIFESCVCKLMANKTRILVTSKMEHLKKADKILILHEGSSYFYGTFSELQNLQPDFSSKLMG

Row | Binder | EC50 (read off the curve) [1] | EC50 (read off the curve) [2] | EC50 (read off the curve) (F508del-2PT-NBD1) | thermostabilization (nanoDSF, Tm) [3] | EC50 (read off the curve) [4] | Tm of stab-CFTR in complex with the nanobody (nanoDSF, first derivative of 350 nm fluorescence); 'stab-CFTR (51.4°C)', 'T2a (66.6°C)' alone [5]
1 | Nanobody T8 (VHH, not shown: small tags and cut ends, Llama nanobody; also called Nb T8; T8 Nb) VHH: QVQLQESGGGLVQPGGSLRLSCAASGSTSSINAMGWYRQAPGKQREPVAISSSGGDTRYAEPVKGRFTISRDNAQNKVYLQMNSLKPEDTAVYYCWLNWGRTSVNSWGQGTQVTVSS | ~2 nM | – | – | – | – | –
2 | Nanobody T2a (VHH, not shown: small tags and cut ends, Llama nanobody; also called Nb T2a; T2a Nb) VHH: QVQLQESGGGLVQAGGSLRLSCAASGSIFRIDAMGWYRQAPGKQRELVAHSTSGGSTDYADSVKGRFTISRDNAKNTVYLQMNSLKPEDTAVYYCNADVRTRWYASNNYWGQGTQVTVSS | ~3 nM | ~10 nM | ~10 nM | 8 °C | ~7 nM | 59.7 °C
